Measured values: patent US20220002363A1, “COMPOSITIONS AND METHODS FOR TREATING PULMONARY DISEASE” (United States Government As Represented By The Department …, priority 2020, published 2022)
Where a SMILES comes first, the peptide text is derived from it. The star is where a group is joined. Cbz = O=C(OCc1ccccc1)*; CH2F = FC*

Columns and labels:
HPAEpiC = settings: cited from earlier work
LA4 monolayer = settings: LA4 cells; cited from earlier work
biotinylated WT-sFasL = target: T1, biotinylated WT-sFasL (human, UniProt P48023 103-281, biotinylated with EZ-Link Sulfo-NHS-LC-Biotin (sites not given)); experiment: mixture captured on streptavidin-coated wells, detected with HRP anti-FLAG antibody
T1 construct: range 103-281; Same protein as WT-sFasL, chemically biotinylated; also called biotinylated wild type sFasL
T1 sequence (looked up): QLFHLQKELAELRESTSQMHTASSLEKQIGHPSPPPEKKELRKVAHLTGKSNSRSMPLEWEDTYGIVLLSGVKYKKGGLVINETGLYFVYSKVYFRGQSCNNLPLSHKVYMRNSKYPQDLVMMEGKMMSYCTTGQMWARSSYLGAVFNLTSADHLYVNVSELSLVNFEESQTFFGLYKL
Protocol: (§1) Serial 3-fold dilutions of FLAG tagged mut-sFasL were mixed with biotinylated WT sFasL (60 ng). The mixtures were incubated at room temperature for 15 minutes and applied to streptavidin-coated wells. FLAG tags were detected with HRP anti-FLAG mAb. There was a dose-dependent increase in FLAG signal in wells incubated with the biotinylated WT sFasL+ and the mut-sFasL-FLAG mixture, showing the formation of complexes of WT and mut-sFasL. […] Data shown as ratio of the absorbance at 450 nm of each experimental condition to that of media only. Data were generated from three separate experiments, each done in duplicate, and were analyzed by 2-way ANOVA with Dunnet's post hoc analysis; comparisons were made to 0 ng/mL for each condition. Each dot represents individual data, lines represent means±SD. *=P<0.05; **=P<0.01, ***P<0.001.
The mut-sFasL forms complexes with WT sFasL. In order to be active, sFasL must form trimers or higher order multimers. Therefore, it was tested whether the mut-sFasL forms complexes with WT-sFasL. The mixture was incubated in streptavidin-coated well to capture the biotinylated WT-sFasL. After washing unbound material, FLAG was detected using an anti-FLAG antibody, which would detect FLAG-tagged mut-sFasL complexed with biotinylated WT-sFasL. […]

recombinant human Fas = target: T2, recombinant human Fas (Homo sapiens, UniProt P25445); experiment: Competition assay: binding of biotinylated WT sFasL to plate-coated recombinant human Fas; settings: biotinylated WT-sFasL 70 ng/mL, Fas coated at 250 ng/mL, serial 3-fold dilutions
T2 construct: recombinant human soluble Fas receptors (PeproTech, Rocky Hill, N.J.); purchased PeproTech
T2 sequence (P25445 26-173 limits assumed): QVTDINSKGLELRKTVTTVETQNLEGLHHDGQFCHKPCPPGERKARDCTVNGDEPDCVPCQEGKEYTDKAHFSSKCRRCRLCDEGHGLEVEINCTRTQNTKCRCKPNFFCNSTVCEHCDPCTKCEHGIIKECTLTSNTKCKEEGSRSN
Protocol: The mixtures were incubated for 2 hours in 96-well plates pre-coated with recombinant hsFas (250 ng/ml). After washing unbound material, biotin was detected using HRP conjugated Streptavidin. […] The sFasL bound to Fas was detected using polyclonal anti-human FasL antibodies. […] Different molar ratios of the Fas-activating antibody CH-11 and mut-sFasL were added, and caspase 3/7 activity measured after 5 hours. […] Data represent the results from three separate experiments, each done in duplicate, and were analyzed by 2-way ANOVA with Sidak's post hoc analysis. […] Each dot represents individual data; lines represent means±SD. *=P<0.05; **=P<0.01, ***P<0.001.
Antibodies and Reagents. […] FLAG tagged mut-sFasL was detected using HRP anti-FLAG monoclonal antibody (Sigma-Aldrich, Cat #A85920). […]
WT-sFasL inhibition occurs prior to receptor binding. […] Recombinant human Fas at 250 ng/mL were coated and the binding of a fixed concentration of biotinylated WT-sFasL (70 ng/mL) were measured in the presence of serial 3-fold dilutions of either WT-sFasL or mut-sFasL. […] Serial dilutions of either WT-sFasL or mut-sFasL were incubated in wells coated with recombinant human Fas, 5 μg/mL, and after washing, detected sFasL bound to Fas using polyclonal anti-FasL antibodies. […]

biotinylated WT sFasL [1] = target: T3, biotinylated WT sFasL (Homo sapiens, UniProt P48023); experiment: Complex formation of FLAG tagged mut-sFasL with biotinylated WT sFasL on streptavidin-coated wells; type: binding; settings: fixed biotinylated WT sFasL (60 ng), increasing FLAG-tagged mut-sFasL
T3 construct: biotin (chemical label, EZ-Link Sulfo-NHS-LC-Biotin); made in house; host or cells: FreeStyle 293-F cells
T3 sequence (P48023 103-281): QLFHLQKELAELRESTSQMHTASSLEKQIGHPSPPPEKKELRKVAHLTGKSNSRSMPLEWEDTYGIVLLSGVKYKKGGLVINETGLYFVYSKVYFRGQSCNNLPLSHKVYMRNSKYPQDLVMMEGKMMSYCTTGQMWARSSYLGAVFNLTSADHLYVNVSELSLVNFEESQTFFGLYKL
Protocol: as §1, with “mAb.” for “mAb. There was a dose-dependent increase in FLAG signal in wells incubated with the biotinylated WT sFasL+ and the mut-sFasL-FLAG mixture, showing the formation of complexes of WT and mut-sFasL.”
(§2) Antibodies and Reagents. To prepare immunoaffinity columns, mouse monoclonal anti-human FasL antibodies, clone 100419 (R&D System, Cat #MAB126, RRID:AB 2246667, Minneapolis, Minn.), were used. For the Fas-FasL binding assay, recombinant human soluble Fas receptors (PeproTech, Rocky Hill, N.J.) and biotinylated goat anti-human FasL antibodies (PeproTech Cat #500-P184bt-50 ug, RRID:AB 148184) were used. Mouse anti-human Fas (CD95) monoclonal IgM antibody, clone CH-11 and its isotype control antibody, clone 3D12, were obtained from MBL, Nagoya, Japan (MBL International Cat #SY-001, RRID:AB 591016 and Cat #M077-3, RRID:AB 593057, respectively). FLAG tagged mut-sFasL was detected using HRP anti-FLAG monoclonal antibody (Sigma-Aldrich, Cat #A85920). Unless otherwise indicated, the other chemicals were purchased from Sigma-Aldrich (St. Louis, Mo.).
(§3) Biotinylation of sFasL. Immunoaffinity purified WT-sFasL was biotinylated with No-Weight Format EZ-Link Sulfo-NHS-LC-Biotin (Pierce, Rockford, Ill., Cat #21327) following the manufacturer's instructions. To capture biotinylated WT-sFasL in the mixtures of biotinylated WT-sFasL and mut-sFasL-FLAG, Streptavidin-variant (Strep-Tactin XT) coated 96-well plates (iba, Gottingen, Germany, Cat #2-4101-001) were used.
(§4) The mut-sFasL forms complexes with WT sFasL. […] After washing unbound material, FLAG was detected using an anti-FLAG antibody, which would detect FLAG-tagged mut-sFasL complexed with biotinylated WT-sFasL.

biotinylated WT sFasL [2] = experiment: as above; type: binding, human; settings: FLAG-tagged mut-sFasL by itself
Protocol: as §1, with “mAb.” for “mAb. There was a dose-dependent increase in FLAG signal in wells incubated with the biotinylated WT sFasL+ and the mut-sFasL-FLAG mixture, showing the formation of complexes of WT and mut-sFasL.”
as §2, §3, §4

In the case of `COC(=O)CC[C@H](NC(=O)[C@H](CC(=O)OC)NC(=O)OCc1ccccc1)C(=O)N[C@H](C(=O)N[C@@H](CC(=O)OC)C(=O)CF)C(C)C` [zDEVD.fmk, reference compound], the “reversal of sFasL effect on monolayer permeability and ZO-1/occludin expression” value (HPAEpiC; HPAEpiC, pretreatment) is listed as “reversed the effect of sFasL on HPAEpiC monolayer permeability and ZO-1/occludin expression”.

In the case of `CC(NC(=O)C(NC(=O)OCc1ccccc1)C(C)C)C(=O)NC(CC(=O)O)C(=O)CF` (stereo not drawn) [zVAD] (Cbz-Val-Ala-Asp-CH2F; configuration not given here), the “reversal of cell death and monolayer permeability induced by Jo2” value (LA4 monolayer) is listed as “reversed cell death and monolayer permeability induced by Jo2”.

B1: FLAG tagged mut-sFasL (ligand, human, UniProt P48023 103-281, looked up)
chain: QLFALQAALAALAASTSQMATASSLAKQIGHPSPPPEKKELRKVAHLTGKSNSRSMPLEWEDTYGIVLLSGVKYKKGGLVINETGLYFVYSKVYFRGQSCNNLPLSHKVYMRNSKYPQDLVMMEGKMMSYCTTGQMWARSSYLGAVFNLTSADHLYVNVSELSLVNFEESQTFFGLYKL
notes: range 103-281; C-terminal FLAG tag; also called mut-sFasL-FLAG; 8-mut sFasL-FLAG; not shown: FLAG tag fused in frame after amino acid 281
B1: binds (biotinylated WT-sFasL).

B2: WT-sFasL: wild type human soluble Fas ligand, amino acids 103 to 281, expressed in FreeStyle 293-F cells (protein, UniProt P48023 103-281, looked up, fragment)
chain: QLFHLQKELAELRESTSQMHTASSLEKQIGHPSPPPEKKELRKVAHLTGKSNSRSMPLEWEDTYGIVLLSGVKYKKGGLVINETGLYFVYSKVYFRGQSCNNLPLSHKVYMRNSKYPQDLVMMEGKMMSYCTTGQMWARSSYLGAVFNLTSADHLYVNVSELSLVNFEESQTFFGLYKL
In the case of B2, the “effect of increasing competitor concentration on binding of biotinylated WT-sFasL to Fas” value (recombinant human Fas) is given as “binding of biotinylated WT-sFasL to Fas decreased” and the “caspase 3 induction” value (HPAEpiC; HPAEpiC exposed to long form of sFasL) is given as “induced caspase 3”.

B3: mut-sFasL-FLAG: 8-mut sFasL with FLAG tag at the 3′-end of the 281th amino acid coding sequence (protein)
chain: QLFALQAALAALAASTSQMATASSLAKQIGHPSPPPEKKELRKVAHLTGKSNSRSMPLEWEDTYGIVLLSGVKYKKGGLVINETGLYFVYSKVYFRGQSCNNLPLSHKVYMRNSKYPQDLVMMEGKMMSYCTTGQMWARSSYLGAVFNLTSADHLYVNVSELSLVNFEESQTFFGLYKL
modifications: left off: small tags and cut ends
For B3, the “FLAG signal (complexes with WT sFasL)” value (biotinylated WT sFasL [1]) was “dose-dependent increase in FLAG signal”, the “binding to streptavidin-coated plate without biotinylated WT sFasL” value (biotinylated WT sFasL [2]) was “did not bind to the streptavidin-coated plates” and the “binding to streptavidin-coated plate without biotinylated WT sFasL” value (biotinylated WT sFasL [2]; listed as FLAG-tagged mut-sFasL) was “did not bind to the plate, even at high concentrations”.
